From patent publication US20220119522A1 (DENALI THERAPEUTICS, published 2022)
Changes are numbered by the printed parent chain. No end group written: not given here.

B1: CL0020314 (antibody, V domains shown)
VH: DVKLVESGGGLVKLGGSLKLSCAASGFTFSSYYMSWVRQTPEKRLELVAAINTNGGRTYYPDTVKGRFTISRDNAKNTLYLQMSSLKSEDTALYYCARESDGGAFAYWGQGTLVTVSA
VL: DVVMTQTPLSLPVSLGDQASISCRSSQSLVHSNGNTYLHWYLQKPGQSPKLLIYKVSNRFSGVPDRFSGSGSGTDFTLKISRVEAEDLGVYFCSQNTHVPLTFGAGTKLELK
notes: also called Clone CL0020314
B2: CL0020315 (antibody, V domains shown)
VH: EVQLQQSGPELVKPGASVKISCKASGYTFTDYNIHWVKQSHGKSLEWIGYIYPYNGVTGYNQKFKSKATLTVDNSSSTAYMELRSLTSEDSAVYYCARSRVDGDYWGQGTTLTVSS
VL: B1 VL with V56I, N96S
notes: also called Clone CL0020315
B3: CL0020201 (antibody, V domains shown)
VH: EVQLQQSGPVLVKPGASVRMSCKPSGYTFTDYYMNWVKQSHGKSLEWIGSINPYTGGSSYNQNFRGKATLTVDKSSSTAYMELNSLTSEDSAVYYCARGSYYSNLGFAYWGQGTLVTVSA
VL: DVQLTQSPSFLTASPGETITINCRASKSISKYLAWYQEKPGKTNKLLISSGSTLQSGIPSRFSGSGSGTDFTLTISSLEPEDFAMYYCQQYSEYPFTFGSGTKLEIK
notes: also called Clone CL0020201
B4: CL0020123-1 (antibody, V domains shown)
VH: QVQLVQSGAEVKKPGASVKVSCKASGFSIEDFYIHWVRQAPGQGLEWMGWIDPENGDSKYAPKFQGRATITADTSTSTAYMELSSLRSEDTAVYYCHADHGNYGSTMDYWGQGTLVTVSS
VL: DIQMTQSPSSLSASVGDRVTITCHASQHINVWLSWYQQKPGKAPKLLIYKASNLHTGVPSRFSGSGSGTDFTLTISSLQPEDFATYYCQQGQTYPRTFGQGTKVEIK
notes: Humanized variant of CL0020123 (hVH NGDS/2 m, Vk graft); also called Clone CL0020123-1
B5: CL0020123-2 (antibody, V domains shown)
VH: B4 VH with A68V
VL: B4 VL
notes: Humanized variant of CL0020123 (hVH NGDS/1 m, Vk graft); also called Clone CL0020123-2
B6: CL0020123-3 (antibody, V domains shown)
VH: B4 VH with N55Q
VL: B4 VL
notes: Humanized variant of CL0020123 (hVH QGDS/2 m, Vk graft); also called Clone CL0020123-3
B7: CL0020123-6 (antibody, V domains shown)
VH: B4 VH with N55Q, A68V
VL: B4 VL
notes: Humanized variant of CL0020123 (hVH QGDS/1 m, Vk graft); also called Clone CL0020123-6
B8: CL0020123-8 (antibody, V domains shown)
VH: B4 VH with N55Q, D57E, A68V
VL: B4 VL
notes: Humanized variant of CL0020123 (hVH QGES/1 m, Vk graft); also called Clone CL0020123-8
B9: CL0020123-4 (antibody, V domains shown)
VH: B4 VH with D57E
VL: B4 VL
notes: Humanized variant of CL0020123 (hVH NGES/2 m, Vk graft); also called Clone CL0020123-4
B10: CL0020313 (antibody, V domains shown)
VH: QVQLKQSGPGLLQPSQSLSITCTVSGFSLTSYGVHWVRQSPGKGLEWLGVIWSGGITLYNAAFMSRLSITKDNSKSQVFFKMNSLQADDTAIYYCAKVGYGSSSDYWGQGTTLTVSS
VL: DVLMTQSPLSLPVSLGDQASFSCRSSQSIVHSNGNTYLEWYLQKPGQSPKLLIYKVSNRFSGVPDRFSGSGSGTDFTLKISRVEAEDLGVYYCFQGSHVPFTFGSGTKLEIK
notes: also called Clone CL0020313
B11: CL0020308 (antibody, V domains shown)
VH: QVQLKQSGPSLVQPSQSLSITCTVSGFSLTTYGIHWVRQSPGKGLEWLGVIWTGGSTAFNAAFMSRLSITKDNSKSQVFFKMNSLQADDTAIYYCAKVGFHSATDYWGQGTSVTVSS
VL: B10 VL with S7T, S14T, F21I, S28N, I29L, V90L
notes: also called Clone CL0020308
B12: CL0020309 (antibody, V domains shown)
VH: B11 VH with T31S, I34V, H35Q, S56T, A58D, M64K, T90S, V98I, T104V
VL: B10 VL with S7T, F21I, S28N, S81N, V90L, V99I, K108Q
notes: also called Clone CL0020309
B13: CL0020139 (antibody, V domains shown)
VH: EVQLQQSGPELVKPGASVKMSCKAPGYSFTSYLMNWVKQKPGQGLEWIGYINPYSAGSNYNEKFKDKATLTSDKSSSTAYMELRSLTSEDSAVYFCARSSYRYGFDYWGQGTTLTVSS
VL: DIQMTQSSSSFSVSLGDRVTITCKASEDIYNRLAWYQQKPGNAPRLLISGATSLETGVPSRFSGSGSGKDYTLSITSLQTEDVATYSCQQYWSTPWTFGGGTKLEIK
notes: also called Clone CL0020139

Experiments:
[1] = molecular target: T1, human TREM2 on the cell surface (human, UniProt Q9NZC2 19-230); experiment: cell-based or functional assay
T1 sequence: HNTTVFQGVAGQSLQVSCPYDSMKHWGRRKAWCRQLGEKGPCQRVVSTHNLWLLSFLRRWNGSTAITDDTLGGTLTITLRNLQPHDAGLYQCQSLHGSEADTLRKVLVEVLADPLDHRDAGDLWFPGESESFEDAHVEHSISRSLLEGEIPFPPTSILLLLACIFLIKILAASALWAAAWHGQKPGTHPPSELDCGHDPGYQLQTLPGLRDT

[2] = molecular target: T1, human TREM2 on the cell surface; experiment: cell binding, human macrophages, dose titration
[3] = molecular target: T2, human TREM2 full length stalk region peptide (aa 129-172) (human, biotinylated (site not stated)); experiment: ELISA on biotinylated peptide captured by streptavidin; A450 normalised to isotype control
T2 construct: also called Human TREM2 peptide (aa 129-172); full-length TREM2 stalk peptide
T2 peptide: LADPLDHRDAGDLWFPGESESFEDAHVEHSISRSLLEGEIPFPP
Description: (§1) TREM2 antibodies were evaluated for binding to human and mouse TREM2 stalk region peptides. […] Antibody binding to TREM2 stalk peptides was detected using standard sandwich ELISA. Briefly, a 96-well half-area ELISA plate was coated with streptavidin overnight at 4° C. The following day, biotinylated TREM2 stalk peptides diluted in 1% BSA/PBS were added to the plate and incubated for 1 hour. Antibodies diluted in 1% BSA/PBS were then added and incubated for 1 hour. Antibodies bound to peptide were detected with anti-human kappa-HRP secondary antibody (Bethyl Laboratories, Inc.) diluted in 1% BSA/PBS. Plates were assayed by reaction with a detection reagent (One-step TMB Ultra, Thermo) and measurement of absorbance at 450 nm (A450) by standard spectrophotometry instrumentation (BioTek®). Data are shown as normalized values (fold over background where background=isotype control).

[4] = molecular target: T3, human TREM2 truncated stalk peptide (aa 149-163) (human, also: biotinylated (site not given here)); experiment: as above
T3 construct: also called Human TREM2 peptide (aa 149-163); truncated stalk peptide containing the ADAM10/17 cleavage site
T3 peptide: SFEDAHVEHSISRSL
Description: as §1

[5] = molecular target: T4, mouse TREM2 full length stalk region peptide (aa 131-169) (mouse, UniProt Q99NH8 131-169, biotinylated (site not stated)); experiment: as above
T4 peptide (looked up): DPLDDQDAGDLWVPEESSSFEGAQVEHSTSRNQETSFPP
Description: as §1

[6] = molecular target: T5, His-tagged human TREM2 ECD (human, UniProt Q9NZC2 19-172); experiment: SPR (Biacore), antibody captured via anti-human Fab, recombinant TREM2 ECD injected, 1:1 fit
T5 construct: Biacore and HDX say only recombinant human TREM2 (ECD); also called recombinant human TREM2; hTREM2
T5 sequence: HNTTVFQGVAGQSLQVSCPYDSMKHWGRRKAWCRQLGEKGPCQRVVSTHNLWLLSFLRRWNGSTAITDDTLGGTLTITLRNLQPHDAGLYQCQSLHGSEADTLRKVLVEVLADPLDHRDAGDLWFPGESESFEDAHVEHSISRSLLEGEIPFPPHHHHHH
Description: (§2) Surface plasmon resonance (Biacore™ 8K instrument) was used to measure anti-TREM2 antibody affinities for human and cynomolgus TREM2 ECD. Anti-TREM2 antibodies were captured using Human Fab Capture Kit (GE Healthcare Life Sciences, Catalog No. 28958325) on a Biacore Series S CM5 sensor chip (GE Healthcare Life Sciences, Catalog No. 29149604). Serial 3-fold dilutions of recombinant human or cynomolgus TREM2 were injected at a flow rate of 30 μL/min. Antibody binding was monitored for 300 seconds, followed by monitoring of antibody dissociation for 600+seconds in HBS-EP+ running buffer (GE Healthcare Life Sciences, Catalog No. BR100669). The binding response was corrected by subtracting the RU value from a blank flow cell. A 1:1 Languir model of simultaneous fitting of kₒₙ and koff was used for kinetics analysis.

[7] = molecular target: T6, recombinant cynomolgus TREM2 ECD (cynomolgus); experiment: as above
T6 construct: extracellular domain; also called cyno TREM2
Description: as §2

[8] = molecular target: T5, His-tagged human TREM2 ECD; experiment: SPR (Biacore)
Description: as §2
(§3) Sequence optimization was conducted by searching within CDR sequences for residues that are susceptible to chemical modification (e.g., asparagine deamidation motifs (NG), aspartic acid isomerization motifs (DS), and potential oxidation residues (tryptophan (W) and methionine (M)) and making amino acid substitutions with conservative and germline residues to remove such sequence liabilities. Humanized and sequence-optimized variants of anti-TREM2 antibodies were then analyzed for binding kinetics using Biacore and dose-titrated cell binding to HEK293-H6 cells (see, Example 1 for representative protocols).

[9] = molecular target: T1, human TREM2 on the cell surface; experiment: flow cytometry, dose-titrated binding to HEK293-H6 cells
Description: After incubation, the cells were centrifuged and washed in FACS buffer (PBS+0.5% BSA) twice. Mixed cells were resuspended in FACS buffer with human Trustain FcX solution (Biolegend, Catalog No. 422302) at a density of 10⁶/mL per cell line. The mixed cell lines were seeded at 200,000 cells per well in a 96-well round-bottom plate and incubated for 20 minutes at room temperature. After incubation, the cells were centrifuged and incubated with anti-TREM2 antibodies of about 0-200 nM dose titration for 45 minutes on ice. After incubation, the cells were centrifuged and washed with FACS buffer three times. […] After incubation, the cells were washed with FACS buffer three times, resuspended in 100 μL of FACS buffer, and analyzed by flow cytometry (BD FACSCanto II, San Jose, Calif.), for which 30,000 events were obtained for each sample. Mean fluorescence intensity per cells were calculated by FlowJo software and used for generating dose response binding curve.
as §3

| Binder | Survival EC50 (nM), plate coated mAb, human macrophages [1] [nM] | pSyk activation (HEK293-H6) EC50 (nM) [1] [nM] | EC50 [2] [nM] | fold over background (A450) [3] [fold] | fold over background (A450) [4] [fold] | fold over background (A450) [5] [fold] | Kd [6] [nM] | Kd [7] [nM] | NFAT EC50 (nM), plate coated mAb [1] [nM] | pSyk activation (human macrophages) EC50 (nM) [1] [nM] | Kd [8] [nM] | EC50 [9] [nM] |
| --- | --- | --- | --- | --- | --- | --- | --- | --- | --- | --- | --- | --- |
| B1 | 1.6 | 18.8 | 0.05 | 11 | 1.2 | 1 | 0.33 | 56.9 |  |  |  |  |
| B2 | 10.1 |  | 5.6 | 8.7 | 1.3 | 6.8 | 0.0259 | 2.52 | 72.7 |  |  |  |
| B3 | 6.6 |  |  | 14 | 1.7 | 5.4 | 0.54 | 13.4 | 81.7 | 9.5 |  |  |
| B4 |  |  |  |  |  |  |  |  |  |  | 0.14 | 0.25 |
| B5 |  |  |  |  |  |  |  |  |  |  | 0.18 | 0.23 |
| B6 |  |  |  |  |  |  |  |  |  |  | 0.4 | 0.24 |
| B7 |  |  |  |  |  |  |  |  |  |  | 0.32 | 0.29 |
| B8 |  |  |  |  |  |  |  |  |  |  | 0.39 | 0.38 |
| B9 |  |  |  |  |  |  |  |  |  |  | 0.17 | 0.17 |
| B10 | 30.7 | 46.6 | 1.2 | 12 | 1.2 |  | 14 | 13.8 |  |  |  |  |
| B11 | 8.9 | 33.4 | 0.6 | 11 |  | 7.9 | 2.31 | 2.28 | 51.9 |  |  |  |
| B12 | 2.69 | 40.6 | 0.7 | 11 |  | 6.6 | 5.31 | 5.33 |  |  |  |  |
| B13 | 1.8 |  | 1.6 | 1.6 | 1.3 | 1.4 | 1.6 | 0.3 | 30.8 | 23.8 |  |  |
